Measurements reported in the supplement of paper PMC9170038.

Test system: MS2 coat protein
Assay: apparent KD of MS2 coat protein; designed switch direction (-1 OFF switch, 1 ON switch): 1; higher = weaker reporter binding
Outline: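 Normalised cluster fluorescence was curve-fitted, and each design's median over clusters is its apparent KD. Before this, SNAP-549-labelled MS2 coat protein was titrated from 0.7 or 1.5 nM, doubling to 3 µM, over RNA switches transcribed on Illumina chips by stalled E. coli RNA polymerase. Titrations had no input, 200 uM small-molecule ligand, or an oligonucleotide input, and steps lasted 0.8–1.5 h (lowest) to 10–20 min (highest).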

[1] = input ligand: microRNA oligo, concentration not stated
[2] = Eterna round: R95, input ligand: FMN 200 uM
[3] = Eterna round: R95, input ligand: microRNA oligo, concentration not stated
[4] = Eterna round: R95, input ligand: none

Row | Sequence | apparent KD of MS2 coat protein (input ligand: FMN 200 uM) [nM] | apparent KD of MS2 coat protein [1] [nM] | apparent KD of MS2 coat protein (input ligand: none) [nM] | apparent KD of MS2 coat protein [2] [nM] | apparent KD of MS2 coat protein [3] [nM] | apparent KD of MS2 coat protein [4] [nM]
1 | UCUCGGGUCGUAGGAUAUGUAGGAUAUGUACAUGAGGAUCACCCAUGUCUACCAGAGACAGAAGGACAGAAGGACGAGCCGAGC [pwkr ssNG2 2FMN 1F5s.7] (Eterna round: R96, puzzle: Same State NG 2) | 19.5 | 19 | 36.3 | – | – | –
2 | UCUUGGUUUUUGCUCGUUUUUUGUGUUGAACAUGAGGAUCACCCAUGUAUUGUACAAUCCGGUUUGAUGAUGGUCCA [JMF 47] (Eterna round: R96, puzzle: Sensor for hsa-mir-208a) | 125 | 55.5 | 115 | – | – | –
3 | UCUUGGUUUUUGCUCGUUUUUUGUGUUGAACAUGAGGAUCACCCAUGUAUUGUACAAUCCGGUUUGAUGAUGGUCCA [JMF 47] (puzzle: Sensor for hsa-mir-208a) | – | – | – | 81.7 | 58.3 | 92.3
4 | UGAACCUUCACAGGAUAUCAUGCGAAAAUUGCGUGAGAAGGGUGGAUGUGGUGUUCAUAGUUGCACAUGAGGAUCACCCAUGUA [SameState NG1 #51] (Eterna round: R96, puzzle: Same State NG 1) | 115 | 124 | 237 | – | – | –
5 | UGAAUAGUGAUAGGAUAUACAUGAGGAAUCCUCGUAGAAGGAUCAUAACAUGAGGAUCACCCAUGUAGCCGUCCGUAGACGGCA [Mat - Same State NG 1 - JL mod - D56] (Eterna round: R96, puzzle: Same State NG 1) | 336 | 64 | 117 | – | – | –
6 | UGAAUGGUGAUAGGAUAUACAUGAGGAAUCCUCGUAGAAGGAUCACGACAUGAGGAUCACCCAUGUAGCCGUCCGUAGACGGCU [salish99_SSNG1_r04_003] (Eterna round: R96, puzzle: Same State NG 1) | 192 | 75.9 | 255 | – | – | –
7 | UGAUGCCCAUCAGGAUAUGGGCCCAUGAGGAUCACCCAUGUAAAGUAGGUCCAACAGGGCCAAGUCUAGAAGGGAUGGCGGGCA [malcolm 80 ssNG2 F5+F7.1] (Eterna round: R96, puzzle: Same State NG 2) | 163 | 59.1 | 190 | – | – | –
8 | UGGAUCUAGGCUUGCCUGGGUCCAUGUUGACAUGAGGAUCACCCAUGUGUAUUUUAUAAGCUUUUUGUUUGUCAACA [JL A Humble Attempt mod 7] (puzzle: Sensor for hsa-mir-208a) | – | – | – | 37 | – | 37.6
9 | UGGAUGGUGAUAGGAUAUACAUGAGGAAUCCUCGUAGAAGGAUCACGACAUGAGGAUCACCCAUGUAGCCGUCCGUAGACGGCU [salish99_SSNG1_r04_004] (Eterna round: R96, puzzle: Same State NG 1) | 478 | 122 | 711 | – | – | –
10 | UGGCCAGCCUGUGCUGGGCUUUAGCAUGUACAUGAGGAUCACCCAUGUCGUGUACAUGCUUUUUGCUCGUCUUUAAA [Photon Torp-06] (puzzle: Sensor for hsa-mir-208a) | – | – | – | 35.8 | 23.1 | 125
11 | UGGCUGGUGCUAGGAUAUGCAUGAGGCCUCCUCGUAGAAGGAGCGCGACAUGAGGAUCACCCAUGUAGCCGUCCGUAGACGGCU [salish99_SSNG1_r04_012] (Eterna round: R96, puzzle: Same State NG 1) | 165 | 100 | 193 | – | – | –
12 | UGGUACAUGAGAGGAUAUGGGUAGAUGACAUGAGGAUCACCCAUGUUAAAGUCCGAAAGGACAUCCUAGAAGGCUCAUGUACCU [MOD of JL SSNG1 3.99] (Eterna round: R96, puzzle: Same State NG 2) | 11 | 27 | 27.7 | – | – | –
13 | UGGUACAUGCGAGGAUAUGGGUUGAUGACAUGAGGAUCACCCAUGUUAAAUAUGCCGAGAGGCACCUAGAAGGCGCAUGUACCU [MOD2 of JL SSNG1 3.99] (Eterna round: R96, puzzle: Same State NG 2) | 10.4 | 23 | 36.9 | – | – | –
14 | UGGUACAUGGGAGGAUAUCUCAUGGUGACAUGAGGAUCACCCAUGUAGUUGGAGCCGAAAGGCUGAGAGAAGGCCCAUGUACCU [JL SSNG1 3.75] (Eterna round: R96, puzzle: Same State NG 2) | 59.4 | 98 | 78.5 | – | – | –
15 | UGUACAUGAGGAUCACCCAUGUCUAGACAUGUUAAUAUAAUGUAGGAUAUAUAAUAUUUAAAUUAAUAGAAGGACAAUUUUUUU [JMF's solution 3] (Eterna round: R96, puzzle: Same State NG 3) | 147 | 115 | 234 | – | – | –
16 | UGUUAGUAGUGAGGAUAUACAUACACCUUACAUGAGGAUCACCCAUGUUUUAAGAUUGAUAGAUAGUAGAAGGCACAUGAUGAU [JR_SSNG2_Sub042] (Eterna round: R96, puzzle: Same State NG 2) | – | 38.2 | – | – | – | –
17 | UGUUGUAUUACAGGAUAUCUAGUAUUUAUAUUUAGAGAAGGGUAUUCACAUGAGGAUCACCCAUGUAUAUACGAGGAAGUUGUG [JMF's solution 41] (Eterna round: R96, puzzle: Same State NG 1) | – | 36.9 | – | – | – | –
18 | UGUUGUAUUACAGGAUAUCUAGUAUUUUUUUUUAGAGAAGGGUAUUCACAUGAGGAUCACCCAUGUAUAUACGAGGAAGUUGUG [JMF's solution 46] (Eterna round: R96, puzzle: Same State NG 1) | – | 46.1 | – | – | – | –
19 | UGUUGUAUUACAGGAUAUCUAUGAUUAUUAUUUAGAGAAGGGUAUUCACAUGAGGAUCACCCAUGUAUAUACGAGGAAGUUGUG [JMF's solution 59] (Eterna round: R96, puzzle: Same State NG 1) | – | 31.2 | – | – | – | –
20 | UGUUGUAUUACAGGAUAUCUAUGAUUUUGAUUUAGAGAAGGGUAUUCACAUGAGGAUCACCCAUGUAUAUACGAGGAAGUUGUG [JMF's solution 64] (Eterna round: R96, puzzle: Same State NG 1) | – | 40.4 | – | – | – | –
21 | UGUUGUAUUACAGGAUAUCUAUUGGUUUUAUUUAGAGAAGGGUAUUCACAUGAGGAUCACCCAUGUAUAUACGAGGAAGUUGUG [JMF's solution 72] (Eterna round: R96, puzzle: Same State NG 1) | – | 43.3 | – | – | – | –
22 | UGUUGUAUUACAGGAUAUCUAUUGUUUUCAUUUAGAGAAGGGUAUUCACAUGAGGAUCACCCAUGUAUAUACGAGGAAGUUGUG [JMF's solution 78] (Eterna round: R96, puzzle: Same State NG 1) | 42.1 | 33.1 | 39.9 | – | – | –
23 | UGUUGUUAAUUAGGAUAUGGGCACAUGAGGAUCACCCAUGUAUUGUCGAUGCUAUGUGGACACGUCUAGAAGGAAUGGCUAACA [SameState NG2 #90] (Eterna round: R96, puzzle: Same State NG 2) | 72.9 | 88 | 112 | – | – | –
24 | UUAAGCCACGGGCAGGAUAUGUGUUAAAAUACAUGAGGAUCACCCAUGUGCAGGUGUAACACCUGACAGAAGGGCCAAUCGCGGC [Soondi - 2] (puzzle: Same State 2) | – | – | – | 23.7 | 43 | 56.4
25 | UUAAUAAAGUAAGGAUAUACAUGAGGAUCACUCGUAGAAGGUACUAAACAUGAGGAUCACCCAUGUACCGGUCCGUAGACUGGA [Mat - Same State NG 1 - JL mod - D1] (Eterna round: R96, puzzle: Same State NG 1) | 844 | 108 | 364 | – | – | –
26 | UUAAUCUGAACAUGAGGAUCACCCAUGUAUCUUAUUUUAGGACAGGAUAUAGAUGUUAAGAAUUACUAGAAGGGUCAGUAUAUU [JR_SSNG3_Sub011] (Eterna round: R96, puzzle: Same State NG 3) | 19.1 | 20.2 | 25.8 | – | – | –
27 | UUAAUGAAGUAAGGAUAUACAUGAGGAUCUCUCGUAGAAGGUACUAUACAUGAGGAUCACCCAUGUGCCGGUCCGUAGACUGGA [JL SSNG1 1.04] (Eterna round: R96, puzzle: Same State NG 1) | 708 | 180 | 1280 | – | – | –
28 | UUAAUGAUGUUAGGAUAUACAUGAGGAAUCCUCGUAGAAGGAACAUGACAUGAGGAUCACCCAUGUAACGCUCCGUAGAGCGUA [JL SSNG1 1.17] (Eterna round: R96, puzzle: Same State NG 1) | – | 44.7 | – | – | – | –
29 | UUAAUUAAUUAAUUAUACAUGAGGAUCACCCAUGUAAGUGAUCAGGAUAUCAGCUCGAAUAGAGCUGAGAAGGGAUACAUGUAA [SSNG3/13-A1] (Eterna round: R96, puzzle: Same State NG 3) | – | 148 | – | – | – | –
